Source: the supplement of paper PMC10567573

B1: ZNF8 (parent)
chain: RTHTGEKPYTCSVCGKSFSRTTCL
B2: INTS4 (parent)
chain: IRLVDDAFGKICHMVSDGSWVVRV

Variants of: B1
Assay: protein stability index of a GFP-peptide fusion (GPS, HEK-293T) (PSI 1-6); higher = more stable
Conditions: c terminus: a fixed tail appended
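Also: lentivirally expressed fusions sorted by FACS into six bins by GFP to DsRed ratio, PSI derived from sequencing read proportions per bin multiplied by bin number.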

Row | Variant | protein stability index
1 | C23Q | 2.24
2 | C23R | 1.84
3 | C23S | 2.03
4 | C23T | 2.1
5 | C23V | 1.59
6 | C23W | 1.78
7 | C23Y | 2.57
8 | L24A | 2.56
9 | L24C | 4.72
10 | L24D | 3.21
11 | L24E | 3.28
12 | L24F | 2.06
13 | L24H | 3.46
14 | L24I | 2.8
15 | L24K | 2.76
16 | L24M | 2.87
17 | L24N | 3.03
18 | L24P | 3.17
19 | L24Q | 2.96
20 | L24R | 2.73
21 | L24S | 2.06
22 | L24T | 3.08
23 | L24V | 3.06
24 | L24W | 2.8
25 | L24Y | 2.48

Variants of: B2
Assay: as above
Conditions: c terminus: a fixed tail appended

Row | Variant | protein stability index
26 | I1A | 2.67
27 | I1C | 2.39
28 | I1E | 2.77
29 | I1F | 4.01
30 | I1H | 3.54
31 | I1K | 3.49
32 | I1M | 3.29
33 | I1N | 3.6
34 | I1P | 2.78
35 | I1Q | 3.89
36 | I1T | 3.21
37 | I1Y | 2.87
38 | R2A | 3.67
39 | R2F | 4.79
40 | R2M | 2.78
41 | R2S | 2.96
42 | R2V | 4.66
43 | L3A | 3.09
44 | L3C | 1.72
45 | L3E | 3.14
46 | L3F | 2.76
47 | L3H | 2.17
48 | L3I | 3.47
49 | L3R | 2.08

Row | Variant | protein stability index
50 | L3V | 3.33
51 | L3W | 1.97
52 | V4A | 3.46
53 | V4C | 2.16
54 | V4F | 2.26
55 | V4I | 3.33
56 | V4K | 3.23
57 | V4L | 4.43
58 | V4M | 4.21
59 | V4N | 1.36
60 | V4P | 2.57
61 | V4R | 1.47
62 | V4S | 2.82
63 | V4T | 1.88
64 | V4Y | 2.46
65 | D5A | 2.73
66 | D5C | 3.07
67 | D5F | 4.33
68 | D5G | 3.16
69 | D5I | 2.67
70 | D5K | 3.01
71 | D5L | 3.22
72 | D5P | 2.53
73 | D5R | 1.8

Row | Variant | protein stability index
74 | D5S | 2.3
75 | D5T | 3.23
76 | D5V | 2.32
77 | D5Y | 3.78
78 | D6E | 3.96
79 | D6G | 2.84
80 | D6L | 1.98
81 | D6M | 3.24
82 | D6N | 4.84
83 | D6Q | 4.08
84 | D6R | 2.21
85 | D6T | 3.69
86 | D6V | 2.35
87 | D6W | 2.88
88 | A7D | 2.86
89 | A7F | 2.22
90 | A7G | 2.95
91 | A7K | 2.09
92 | A7L | 3.62
93 | A7M | 2.62
94 | A7S | 4.46
95 | A7W | 3.37
96 | F8C | 2.59
97 | F8D | 4.44

Row | Variant | protein stability index
98 | F8E | 3.82
99 | F8G | 1.6
100 | F8H | 2.19
101 | F8I | 2.78
102 | F8K | 2.31
103 | F8M | 2.69
104 | F8P | 2.54
105 | F8Q | 2.5
106 | F8R | 2.46
107 | F8S | 3.94
108 | F8W | 3.06
109 | F8Y | 2.45
110 | G9E | 1.14
111 | G9F | 3.37
112 | G9K | 1.85
113 | G9M | 2.96
114 | G9P | 3.75
115 | G9R | 2.17
116 | G9V | 2.6
117 | G9Y | 3.11
118 | K10C | 3.27
119 | K10F | 2.4
120 | K10G | 2.29
121 | K10I | 2.57

Row | Variant | protein stability index
122 | K10L | 2.96
123 | K10N | 1.78
124 | K10P | 2.29
125 | K10R | 4.19
126 | I11C | 2.87
127 | I11H | 3.47
128 | I11M | 2.41
129 | I11N | 2.3
130 | I11Q | 2.63
131 | I11S | 2.87
132 | I11V | 3.14
133 | I11Y | 3.31
134 | C12A | 3.65
135 | C12D | 3.58
136 | C12F | 1.73
137 | C12G | 5.66
138 | C12H | 2.35
139 | C12K | 4.92
140 | C12N | 2.44
141 | C12P | 3.97
142 | C12Q | 2.82
143 | C12R | 4.2
144 | C12T | 2.91
145 | C12W | 3

Row | Variant | protein stability index
146 | H13A | 3.2
147 | H13D | 3.12
148 | H13G | 2.97
149 | H13I | 3.17
150 | H13K | 3.46
151 | H13M | 3.09
152 | H13P | 2.63
153 | H13S | 1.3
154 | H13Y | 2.38
155 | M14A | 2.75
156 | M14D | 4.2
157 | M14F | 3.85
158 | M14H | 3.19
159 | M14I | 2.62
160 | M14N | 5.13
161 | M14P | 2.76
162 | M14Q | 1.49
163 | M14R | 1.53
164 | M14S | 2.48
165 | M14T | 3.71
166 | M14V | 4.58
167 | M14Y | 1.64
